Patent publication US20240132578A1

Experiments:
Test in all cases: cell-based or functional assay
[1] = molecular target: HIV-1 VLGCA1 envelope glycoprotein (Env) on pseudovirus (HIV-1 (clade A))
[2] = molecular target: HIV-1 Env of isolate MGRM-A-005 (clade A pseudovirus) (HIV-1)
[3] = molecular target: HIV-1 Env of isolate MGRM-A-014 (clade A pseudovirus) (HIV-1)
[4] = molecular target: envelope of aMLV pseudovirus (negative control)
[5] = molecular target: HIV-1 Env of isolate MGRM-D-011 (clade D pseudovirus) (HIV-1)
[6] = molecular target: HIV-1 Env of isolate MGRM-D-014 (clade D pseudovirus) (HIV-1)
[7] = molecular target: HIV-1 Env of isolate MGRM-A-007 (clade A pseudovirus) (HIV-1)
[8] = molecular target: HIV-1 envelope glycoprotein (Env) of isolate MGRM-C-004 (HIV-1)
[9] = molecular target: HIV-1 envelope glycoprotein (Env) of isolate MGRM-C-014 (HIV-1)
[10] = molecular target: HIV-1 Env of pseudovirus MGRM-F1-020 (clade F) (HIV-1)
[11] = molecular target: HIV-1 Env of isolate MGRM-D-003 (clade D pseudovirus) (HIV-1)
[12] = molecular target: HIV-1 94UG103 envelope (Env) on pseudovirus (HIV-1)
[13] = molecular target: HIV-1 Env of isolate MGRM-D-016 (clade D pseudovirus) (HIV-1)
[14] = molecular target: HIV-1 envelope glycoprotein (Env) of isolate 92RW008, subtype A (HIV-1)
[15] = molecular target: HIV-1 envelope glycoprotein (Env) of isolate MGRM-Chronic-B-004, on pseudovirus (HIV-1)
[16] = molecular target: HIV-1 envelope glycoprotein (Env) of isolate MG RM-A-005, subtype A (HIV-1)
[17] = molecular target: HIV-1 envelope glycoprotein (Env) of isolate MG RM-A-001, subtype A (HIV-1)
[18] = molecular target: HIV-1 envelope glycoprotein (Env) of isolate MGRM-Chronic-B-008, on pseudovirus (HIV-1)
[19] = molecular target: HIV-1 JR-CSF Env W395A (HIV-1 (isolate JR-CSF)) (UniProt P20871)
[20] = molecular target: HIV-1 envelope glycoprotein (Env) of isolate NL43, on pseudovirus (HIV-1)
HIV-1 JRCSF Env (HIV-1) = HIV-1 JRCSF Env (HIV-1) (UniProt P20871)
[21] = molecular target: HIV-1 envelope glycoprotein (Env) of isolate 92UG037, subtype A (HIV-1)
[22] = molecular target: HIV-1 envelope glycoprotein (Env) of isolate MGRM-Chronic-B-002, on pseudovirus (HIV-1)
[23] = molecular target: HIV-1 envelope glycoprotein (Env) of isolate MGRM-Chronic-B-001, on pseudovirus (HIV-1)
[24] = molecular target: HIV-1 92UG005 Env (HIV-1)
[25] = molecular target: HIV-1 envelope glycoprotein (Env) of isolate 92WR021, subtype A (HIV-1)
[26] = molecular target: HIV-1 Env of isolate MGRM-G-016 (subtype G) (HIV-1)
[27] = molecular target: HIV-1 Env of isolate MGRM-G-014 (subtype G) (HIV-1)
[28] = molecular target: HIV-1 Env of isolate MGRM-D-020 (pseudovirus) (HIV-1)
[29] = molecular target: HIV-1 Env of isolate MGRM-D-011 (pseudovirus) (HIV-1)
[30] = molecular target: HIV-1 Env of isolate MGRM-D-029 (HIV-1)
[31] = molecular target: HIV-1 Env of isolate MGRM-D-012 (pseudovirus) (HIV-1)
[32] = molecular target: HIV-1 Env of isolate MGRM-A-002 (pseudovirus) (HIV-1)
[33] = molecular target: HIV-1 Env of isolate MGRM-F1-012 (HIV-1)
[34] = molecular target: HIV-1 Env of isolate MGRM-G-013 (subtype G) (HIV-1)

Chain of 1443_C16 (PG16) (TCN-116) (antibody) (VH): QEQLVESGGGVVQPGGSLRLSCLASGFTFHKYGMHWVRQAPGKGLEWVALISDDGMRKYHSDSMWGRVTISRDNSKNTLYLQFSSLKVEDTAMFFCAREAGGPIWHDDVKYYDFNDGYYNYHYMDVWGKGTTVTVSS
Chain of 1443_C16 (PG16) (TCN-116) (antibody) (VL): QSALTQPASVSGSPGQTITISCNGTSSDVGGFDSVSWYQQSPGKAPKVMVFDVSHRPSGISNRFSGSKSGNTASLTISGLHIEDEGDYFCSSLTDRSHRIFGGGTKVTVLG

Substance	IC50 (µg/ml), pseudovirus neutralization [1] [µg/mL]	IC50 (µg/ml), pseudovirus neutralization [2] [µg/mL]	IC50 (µg/ml), pseudovirus neutralization [3] [µg/mL]	IC50 [4] [µg/mL]	IC50, pseudovirus neutralization [5] [µg/mL]	IC50, pseudovirus neutralization [6] [µg/mL]	IC50 (µg/ml), pseudovirus neutralization [7] [µg/mL]	IC50 (µg/ml), pseudovirus neutralization [8] [µg/mL]	IC50 (µg/ml), pseudovirus neutralization [9] [µg/mL]	IC50 [10] [µg/mL]	IC50, pseudovirus neutralization [11] [µg/mL]	neutralization IC50 [12] [µg/mL]	IC50, pseudovirus neutralization [13] [µg/mL]	IC50, pseudovirus neutralization [14] [µg/mL]	IC50, pseudovirus neutralization [15] [µg/mL]	IC50, pseudovirus neutralization [16] [µg/mL]	IC50, pseudovirus neutralization [17] [µg/mL]	IC50, pseudovirus neutralization [18] [µg/mL]	IC50, pseudovirus neutralization [20] [µg/mL]	IC50, pseudovirus neutralization [21] [µg/mL]	further results
4E10 (antibody)	4.58	4.09	1.74	> 50	0.91	3.24	1.82	24.2	2.48	0.66	2.49	9.7	15.4	–	–	–	–	–	–	–	–
4858_P08 (PGT-123) (antibody)	–	–	–	–	–	–	–	–	–	–	–	–	–	0.003	0.008	> 50	> 50	0.01	> 50	0.023	Fold IC50 increase relative to wild-type (pseudovirus neutralization) [19]: 0.4 fold; IC50, pseudovirus neutralization (HIV-1 JRCSF Env (HIV-1)): 0.0423 µg/mL; IC50, pseudovirus neutralization [22]: 0.234 µg/mL; IC50, pseudovirus neutralization [23]: 0.15 µg/mL; IC50, pseudovirus neutralization [24]: 2.49 µg/mL; IC50, pseudovirus neutralization [25]: 0.005 µg/mL
1496_C09 (PG9) (TCN-109) (antibody)	0.07	–	0.62	–	0.06	–	0.37	1.18	0.64	4.55	–	0.173	0.1	–	–	–	–	–	–	–	IC50 (µg/mL), pseudovirus neutralization [26]: 1.36 µg/mL; IC50 (µg/mL), pseudovirus neutralization [27]: 16.5 µg/mL; IC50, pseudovirus neutralization (HIV-1 JRCSF Env (HIV-1)): 0.0048 µg/mL
b12 (antibody)	> 50	3.64	> 50	> 50	7.75	> 50	> 50	5.46	> 50	> 50	> 50	3.54	1.12	–	–	–	–	–	–	–	–
1495_C14 (PGC14) (antibody)	> 50	> 50	> 50	> 50	> 50	48	> 50	> 50	> 50	> 50	> 50	> 50	> 50	–	–	–	–	–	–	–	–
2G12 (antibody)	> 50	> 50	> 50	> 50	1.5	> 50	> 50	> 50	> 50	> 50	> 50	> 50	> 50	–	–	–	–	–	–	–	–
5329_C19 (PGT-136) (antibody)	–	–	–	–	–	–	–	–	–	–	–	–	–	–	–	–	–	–	–	–	IC50 (µg/mL), pseudovirus neutralization [28]: > 50 µg/mL; IC50 (µg/mL), pseudovirus neutralization [29]: > 50 µg/mL; IC50 (µg/mL), pseudovirus neutralization [30]: > 50 µg/mL; IC50 (µg/mL), pseudovirus neutralization [31]: > 50 µg/mL; IC50 (µg/mL), pseudovirus neutralization [32]: > 50 µg/mL; IC50 (µg/mL), pseudovirus neutralization [33]: > 50 µg/mL
2F5 (antibody)	3.9	5.7	1.43	> 50	> 50	2.22	16.3	> 50	> 50	0.59	> 50	3.79	9.85	–	–	–	–	–	–	–	–
4838_L06 (PGT-121) (antibody)	–	–	–	–	–	–	–	–	–	–	–	–	–	0.003	0.009	> 50	> 50	0.007	> 50	0.031	IC50, pseudovirus neutralization [22]: 0.386 µg/mL; IC50, pseudovirus neutralization [23]: 0.102 µg/mL; IC50, pseudovirus neutralization [24]: > 10 µg/mL; IC50, pseudovirus neutralization [25]: 0.009 µg/mL
5141_B17 (PGT-126) (antibody)	–	–	–	–	–	–	–	–	–	–	–	–	–	0.008	0.01	> 50	> 50	5.89	> 50	0.011	Fold IC50 increase relative to wild-type (pseudovirus neutralization) [19]: 0.6 fold; IC50, pseudovirus neutralization (HIV-1 JRCSF Env (HIV-1)): 0.0061 µg/mL; IC50, pseudovirus neutralization [22]: 0.078 µg/mL; IC50, pseudovirus neutralization [23]: > 50 µg/mL; IC50, pseudovirus neutralization [24]: 0.0181 µg/mL; IC50, pseudovirus neutralization [25]: 0.006 µg/mL
5145_B14 (PGT-127) (antibody)	–	–	–	–	–	–	–	–	–	–	–	–	–	0.012	0.018	> 50	> 50	21.5	> 50	0.014	Fold IC50 increase relative to wild-type (pseudovirus neutralization) [19]: 1.6 fold; IC50, pseudovirus neutralization [22]: 0.279 µg/mL; IC50, pseudovirus neutralization [23]: > 50 µg/mL; IC50, pseudovirus neutralization [25]: 0.011 µg/mL
4877_D15 (PGT-122) (antibody)	–	–	–	–	–	–	–	–	–	–	–	–	–	0.003	0.008	> 50	> 50	0.017	> 50	0.068	IC50, pseudovirus neutralization (HIV-1 JRCSF Env (HIV-1)): 0.0727 µg/mL; IC50, pseudovirus neutralization [22]: 1.8 µg/mL; IC50, pseudovirus neutralization [23]: 0.138 µg/mL; IC50, pseudovirus neutralization [24]: > 10 µg/mL; IC50, pseudovirus neutralization [25]: 0.021 µg/mL
PGV04 (antibody)	–	–	–	–	–	–	–	–	–	–	–	–	–	–	–	–	–	–	–	–	IC50 (µg/mL), pseudovirus neutralization [26]: 0.019 µg/mL; IC50 (µg/mL), pseudovirus neutralization [34]: 0.168 µg/mL; IC50 (µg/mL), pseudovirus neutralization [27]: 0.056 µg/mL
1443_C16 (PG16) (TCN-116) (antibody)	0.18	0.09	20.3	> 50	0.01	0.003	5.91	5.09	> 50	4.35	0.01	0.008	0.02	–	–	–	–	–	–	–	–
5345_I01 (PGT-137) (antibody)	–	–	–	–	–	–	–	–	–	–	–	–	–	–	–	–	–	–	–	–	IC50 (µg/mL), pseudovirus neutralization [28]: > 50 µg/mL; IC50 (µg/mL), pseudovirus neutralization [29]: 6.3 µg/mL; IC50 (µg/mL), pseudovirus neutralization [30]: > 50 µg/mL; IC50 (µg/mL), pseudovirus neutralization [31]: > 50 µg/mL; IC50 (µg/mL), pseudovirus neutralization [32]: > 50 µg/mL; IC50 (µg/mL), pseudovirus neutralization [33]: > 50 µg/mL
5123_A06 (PGT-125) (antibody)	–	–	–	–	–	–	–	–	–	–	–	–	–	0.004	0.007	> 50	12.4	> 50	> 50	0.005	Fold IC50 increase relative to wild-type (pseudovirus neutralization) [19]: 0.9 fold; IC50, pseudovirus neutralization (HIV-1 JRCSF Env (HIV-1)): 0.006 µg/mL; IC50, pseudovirus neutralization [22]: 0.064 µg/mL; IC50, pseudovirus neutralization [23]: > 50 µg/mL; IC50, pseudovirus neutralization [24]: > 10 µg/mL; IC50, pseudovirus neutralization [25]: 0.005 µg/mL
